{
  "source": "patent US20200223930A1",
  "binders": {"B1": {"name": "3F5 (antibody, V domains shown)", "VH": "EVQLQQSGPELVKPGSSVKISCKASGYTFTDYNMDWVKQSHGKSLEWIGTINPNNGGTSYNQKFKGKATLTVDKSSSTAYMELRSLTSEDSAVYYCARKGYGGNYDYFDYWGQGTTLTVSS", "VL": "DILLTQSPAILSVSPGERVSFSCRASQSIGTSIHWYQQRTNGSPRLLIKYASESISGIPSRFSGSGSGTDFTLSINSVESEDIADYYCQQSNSWPYTFGGGTKLEIK"}},
  "target": "CD33 (UniProt P20138)",
  "sequence (P20138 18-364 limits assumed)": "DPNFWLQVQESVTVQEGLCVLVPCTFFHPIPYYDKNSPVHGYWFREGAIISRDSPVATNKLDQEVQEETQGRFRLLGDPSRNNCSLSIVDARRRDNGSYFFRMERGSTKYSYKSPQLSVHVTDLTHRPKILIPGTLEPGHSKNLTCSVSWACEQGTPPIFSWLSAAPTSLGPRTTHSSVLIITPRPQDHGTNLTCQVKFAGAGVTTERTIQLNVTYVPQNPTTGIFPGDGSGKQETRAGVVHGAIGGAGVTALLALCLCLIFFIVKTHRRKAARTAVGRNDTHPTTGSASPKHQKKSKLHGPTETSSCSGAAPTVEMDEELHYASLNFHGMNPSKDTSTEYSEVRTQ",
  "test": "flow cytometry, hybridoma supernatant on EL4-CD33 cells, rat anti-mouse IgG APC",
  "data": [
    {"binder": "B1", "values": [
      {"measurement": "CD33/APC+", "result": 52, "unit": "%"}
    ]}
  ]
}
